Data: IntAct's records for PubMed 22363216

Biological target: arfg1_rat Arfgap1 (UniProt Q62848)
Sequence (Q62848 whole entry): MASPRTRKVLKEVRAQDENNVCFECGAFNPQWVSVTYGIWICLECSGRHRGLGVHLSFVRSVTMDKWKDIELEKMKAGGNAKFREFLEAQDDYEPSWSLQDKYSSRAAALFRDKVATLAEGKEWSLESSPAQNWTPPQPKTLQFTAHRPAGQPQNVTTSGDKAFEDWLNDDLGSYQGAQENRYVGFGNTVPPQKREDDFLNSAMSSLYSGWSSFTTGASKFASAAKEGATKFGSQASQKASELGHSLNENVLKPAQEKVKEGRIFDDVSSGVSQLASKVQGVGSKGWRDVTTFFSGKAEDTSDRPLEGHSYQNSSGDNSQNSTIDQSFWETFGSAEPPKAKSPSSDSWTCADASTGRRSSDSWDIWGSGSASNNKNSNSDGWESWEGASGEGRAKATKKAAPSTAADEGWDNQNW

Substance | effect of a mutation on the interaction
Leucine-rich repeat serine/threonine-protein kinase 2 (Homo sapiens), Q5S007 G2019S | increasing interaction
Leucine-rich repeat serine/threonine-protein kinase 2 (Homo sapiens), Q5S007 R1398L | decreasing interaction
Leucine-rich repeat serine/threonine-protein kinase 2 (Homo sapiens), Q5S007 R1441C | increasing interaction
Leucine-rich repeat serine/threonine-protein kinase 2 (Homo sapiens), Q5S007 T1348N | decreasing interaction
Leucine-rich repeat serine/threonine-protein kinase 2 (Homo sapiens), Q5S007 Y1699C | increasing interaction
